This is an account of results in US20040265295.

This data set addresses T1, His-PIPKIγ661 C-terminus, wild-type (439-661).
T1 chain: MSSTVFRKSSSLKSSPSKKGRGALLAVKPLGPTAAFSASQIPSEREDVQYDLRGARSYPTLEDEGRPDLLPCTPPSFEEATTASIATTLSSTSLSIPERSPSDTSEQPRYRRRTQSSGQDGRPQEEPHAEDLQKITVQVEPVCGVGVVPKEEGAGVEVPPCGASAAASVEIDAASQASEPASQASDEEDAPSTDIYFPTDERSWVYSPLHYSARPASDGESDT

B1: focal adhesion-associated kinase (FAK) (protein)
chain: MAAAYLDPNLNHTPSSSTKTHLGTGMERSPGAMERVLKVFHHFESSSEPTTWASIIRHGDATDVRGIIQKIVDSHKVKHVACYGFRLSHLRSEEVHWLHVDMGVSSVREKYELAHPPEEWKYELRIRYLPKGFLNQFTEDKPTLNFFYQQVKSDYMQEIADQVDQEIALKLGCLEIRRSYWEMRGNALEKKSNYEVLEKDVGLKRFFPKSLLDSVKAKTLRKLIQQTFRQFANLNREESILKFFEILSPVYRFDKECFKCALGSSWIISVELAIGPEEGISYLTDKGCNPTHLADFNQVQTIQYSNSEDKDRKGMLQLKIAGAPEPLTVTAPSLTIAENMADLIDGYCRLVNGATQSFIIRPQKEGERALPSIPKLANSEKQGMRTHAVSVSHCQHKVKKARRFLPLVFCSLEPPPTDEISGDETDDYAEIIDEEDTYTMPSKSYGIDEARDYEIQRERIELGRCIGEGQFGDVHQGVYLSPENPALAVAIKTCKNCTSDSVREKFLQEALTMRQFDHPHIVKLIGVITENPVWIIMELCTLGELRSFLQVRKYSLDLASLILYAYQLSTALAYLESKRFVHRDIAARNVLVSSNDCVKLGDFGLSRYMEDSTYYKASKGKLPIKWMAPESINFRRFTSASDVWMFGVCMWEILMHGVKPFQGVKNNDVIGRIENGERLPMPPNCPPTLYSLMTKCWAYDPSRRPRFTELKAQLSTILEEEKVQQEERMRMESRRQATVSWDSGGSDEAPPKPSRPGYPSPRSSEGFYPSPQHMVQTNHYQVSGYPGSHGIPAMAGSIYQGQASLLDQTELWNHRPQEMSMWQPSVEDSAALDLRGMGQVLPPHLMEERLIRQQQEMEEDQRWLEKEERFLKPDVRLSRGSIDREDGSFQGPTGNQHIYQPVGKPDPAAPPKKPPRPGAPGHLSNLSSISSPADSYNEGVKLQPQEISPPPTANLDRSNDKVYENVTGLVKAVIEMSSKIQPAPPEEYVPMVKEVGLALRTLLATVDETIPALPASTHREIEMAQKLLNSDLGELISKMKLAQQYVMTSLQQEYKKQMLTAAHALAVDAKNLLDVIDQARLKMLGQTRPH
Consider B1, for which the “in vitro kinase assay, phosphorylation of the recombinant substrate” value is recorded as “while FAK does not”.
